Our source for the Fold diff values is patent publication US20220332804A1 (CSL INNOVATION, published 2022).

Changes are numbered by the printed parent chain.

Common to all, as to assay: SPR, KD relative to WT C2;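 note: biacore SPR at 37 °C, anti-C2 mAbs captured via immobilised goat anti-human IgG, C2 alanine or serine surface mutants as analytes, 1:1 model fitted, double-referenced sensograms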
(In general: SPR reads the build-up and loss of mass on a sensor chip optically.)

For one test, the target named is T1, human C2 K487A (human, UniProt P06681 21-752).
T1 sequence: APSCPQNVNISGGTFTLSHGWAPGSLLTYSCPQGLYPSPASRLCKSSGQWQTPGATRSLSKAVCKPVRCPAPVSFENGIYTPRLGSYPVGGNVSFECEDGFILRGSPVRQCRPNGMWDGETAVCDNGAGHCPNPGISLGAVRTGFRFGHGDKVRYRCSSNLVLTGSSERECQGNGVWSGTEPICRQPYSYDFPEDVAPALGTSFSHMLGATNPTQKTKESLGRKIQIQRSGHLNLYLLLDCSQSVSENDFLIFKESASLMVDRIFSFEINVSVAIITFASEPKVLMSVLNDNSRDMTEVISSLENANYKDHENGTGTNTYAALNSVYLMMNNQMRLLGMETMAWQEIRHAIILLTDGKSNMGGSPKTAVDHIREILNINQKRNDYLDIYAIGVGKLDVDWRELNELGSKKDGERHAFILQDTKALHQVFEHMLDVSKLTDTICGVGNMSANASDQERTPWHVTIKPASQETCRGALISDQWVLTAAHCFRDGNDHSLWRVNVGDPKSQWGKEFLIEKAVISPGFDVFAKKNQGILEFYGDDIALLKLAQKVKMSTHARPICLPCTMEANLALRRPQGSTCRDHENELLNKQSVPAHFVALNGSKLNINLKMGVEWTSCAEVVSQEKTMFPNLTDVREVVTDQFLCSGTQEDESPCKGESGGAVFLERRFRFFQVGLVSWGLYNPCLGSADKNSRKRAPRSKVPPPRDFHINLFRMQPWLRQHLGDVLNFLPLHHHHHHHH

Another test has as its target T2, human C2 G427A (human, UniProt P06681 21-752).
T2 sequence: T1 sequence with G407A, A467K

The target in another test is T3, human C2 R688A (human, UniProt P06681 21-752).
T3 sequence: T1 sequence with A467K, R668A

The target in the next test is T4, human C2 L620A (human, UniProt P06681 21-752).
T4 sequence: T1 sequence with A467K, L600A

B1: RF16-226 (antibody, human IgG4 S228P, lambda)
heavy: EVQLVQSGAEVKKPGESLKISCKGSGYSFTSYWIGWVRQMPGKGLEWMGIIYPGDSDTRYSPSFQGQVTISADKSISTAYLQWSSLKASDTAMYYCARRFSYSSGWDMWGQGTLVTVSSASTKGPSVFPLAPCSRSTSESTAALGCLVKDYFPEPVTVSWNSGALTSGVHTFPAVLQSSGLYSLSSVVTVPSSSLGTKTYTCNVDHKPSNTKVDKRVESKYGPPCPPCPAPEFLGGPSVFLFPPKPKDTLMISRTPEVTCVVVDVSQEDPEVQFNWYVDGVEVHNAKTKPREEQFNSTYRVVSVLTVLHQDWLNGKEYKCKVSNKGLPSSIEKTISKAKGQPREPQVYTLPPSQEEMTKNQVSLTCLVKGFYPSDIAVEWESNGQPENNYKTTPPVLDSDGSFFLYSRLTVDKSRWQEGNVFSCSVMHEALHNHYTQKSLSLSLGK
light: SYELTQPPSVSVSPGQTARITCSGDALTSKYVAWYQQKSGLAPLLVIYEDTRRPSGIPAKFSGSSSGSVATLTISGAHGDDEADYYCYSTDASGHQRVFGGGTKLTVLSQPKAAPSVTLFPPSSEELQANKATLVCLISDFYPGAVTVAWKADGSPVKAGVETTKPSKQSNNKYAASSYLSLTPEQWKSHRSYSCQVTHEGSTVEKTVAPTECS
notes: pH-dependent anti-C2 antibody from a phage display library; also called WT
As to B1, the Fold diff with human C2 K487A was found to be 9 fold; in the test with human C2 G427A, 0 fold; with human C2 R688A, 3 fold; with human C2 L620A it was 1 fold.
